# Laboratory results published in patent US20240277861A1, “ANTI-HEPATITIS B VIRUS AGENT TARGETING HOST FACTOR LIPG” (PUROTECH BIO, INC., priority 2021, published 2024).
# T1: binding between preS1 and heparan sulfate enhanced by LIPG (Homo sapiens, UniProt Q9Y5X9)
# T1 construct: FLAG
# T1 sequence (Q9Y5X9 21-500): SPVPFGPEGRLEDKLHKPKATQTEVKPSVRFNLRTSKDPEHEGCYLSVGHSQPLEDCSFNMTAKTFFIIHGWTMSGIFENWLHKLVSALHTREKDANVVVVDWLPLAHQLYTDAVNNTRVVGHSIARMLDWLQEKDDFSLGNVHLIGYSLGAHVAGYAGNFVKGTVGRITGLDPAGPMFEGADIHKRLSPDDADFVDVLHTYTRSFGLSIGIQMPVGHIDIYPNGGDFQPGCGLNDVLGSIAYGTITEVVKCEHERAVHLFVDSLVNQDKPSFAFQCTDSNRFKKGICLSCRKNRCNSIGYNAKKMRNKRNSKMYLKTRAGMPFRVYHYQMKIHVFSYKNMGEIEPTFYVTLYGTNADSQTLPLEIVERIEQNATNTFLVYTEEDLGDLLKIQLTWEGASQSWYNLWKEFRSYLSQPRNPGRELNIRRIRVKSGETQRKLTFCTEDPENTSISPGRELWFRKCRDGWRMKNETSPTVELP
# Legend:
# [1] = test system: HBV; test: HBV attachment and uptake assay in HepG2-NTCP-C4-LIPG cells; assay type: cell-based; conditions: pretreated 1 hour
# Method: (§1) HBV-DNA and cccDNA were quantified by qPCR as described below. Total DNA was extracted from cells using DNeasy Blood & Tissue Kit (Qiagen, Hilden, Germany). HBV-DNA was quantified by qPCR analysis as previously reported (Honda. M. et al., J. Infect. Dis., 213, 1096-1106, 2016). The extracted DNA (50 ng) was treated with 10 U of Plasmid safe DNase I (Epicentre, Madison. WI) at 37° C. for 60 minutes and then treated at 70° C. for 30 minutes for DNase inactivation, cccDNA was quantified by qPCR analysis as previously reported (Honda, M. et al., J. Infect. Dis. 213, 1096-1106, 2016). Quantitative RT-PCR was performed as described below. The GenElute™ Mammalian Total RNA Miniprep Kit (Sigma-Aldrich) was used for extraction of total RNA, and the High Capacity cDNA Reverse Transcription Kit (Applied Biosystems, Carlsbad, CA) was used for cDNA synthesis. The 7500 Real Time PCR System (Applied Biosystems) was used for RT-PCR. Primers 5′-[…]-3′ (SEQ ID NO: 31) and 5′-[…]-3′ (SEQ ID NO: 32) and a probe 5′-FAM-[…]-MGB-3′ (SEQ ID NO: 33) were used for pregenomic RNA. Primer pairs and probes for LIPG, NTCP. 18SrRNA, and ACTB were obtained from the TaqMan assay reagents library.
# When the abundance of LIPG expression was compared among different liver cell lines. […] HepG2-NTCP-C4 cells with overexpression of FLAG-LIPG (HepG2-NTCP-C4-LIPG cells) were established (FIG. 2B), and the attachment and uptake of HBV into cells were assayed in the resulting cells. Heparin, which has been reported to inhibit HBV attachment (Schulze. A. et al., Hepatology 46: 1759-1768, 2007), and heparanase, an endo-β-D-glucuronidase that cleaves the heparan sulfate side chain in heparan sulfate proteoglycans (HSPGs) (Bame, KJ. Glycobiology,11: 91R-98R,2001), were used as control compounds. Cells (HepG2-NTCP-C4-LIPG cells and HepG2-NTCP-C4 control cells) were pretreated with these compounds for 1 hour and then with HBV at 4° C. for 3 hours to allow HBV to attach the cells, washed to wash out HBV, and further incubated at 37° C. for 12 hours to detect uptake of HBV (FIG. 2C). In addition, the cells were further cultured in a conventional culture medium for 3 days after HBV inoculation to detect HBV DNA and cccDNA in the cells (FIG. 2C). HBV attachment was detected by qPCR of HBV-DNA at 3 hours after HBV inoculation at 4° C. in the presence or absence of the compound (heparin or heparanase). HBV attachment (FIG. 2D), uptake (FIG. 2E), and replication of HBV DNA and cccDNA (FIGS. 2F and 2G) were all increased in the HepG2-NTCP-C4-LIPG cells compared to the HepG2-NTCP-C4 control cells.
# Next, the effect of a LIPG inhibitor (GSK-264220A) on HBV attachment and uptake was examined. […] At the same time, this inhibitor had no effect on HepG2-NTCP-C4 control cells.
# [2] = test system: HBV; test: HBV attachment, uptake and replication in Huh7-LIPG cells; assay type: cell-based; conditions: Huh7-LIPG cells infected with HBV, 3 days after treatment
# Method: as §1
# When the abundance of LIPG expression was compared among different liver cell lines. […] HepG2-NTCP-C4 cells with overexpression of FLAG-LIPG (HepG2-NTCP-C4-LIPG cells) were established (FIG. 2B), and the attachment and uptake of HBV into cells were assayed in the resulting cells. Heparin, which has been reported to inhibit HBV attachment (Schulze. A. et al., Hepatology 46: 1759-1768, 2007), and heparanase, an endo-β-D-glucuronidase that cleaves the heparan sulfate side chain in heparan sulfate proteoglycans (HSPGs) (Bame, KJ. Glycobiology,11: 91R-98R,2001), were used as control compounds. […] HBV attachment was detected by qPCR of HBV-DNA at 3 hours after HBV inoculation at 4° C. in the presence or absence of the compound (heparin or heparanase). […]
# [3] = test system: HBV; test: Anti-HBV activities of LIPG-binding peptides in PXB cells; assay type: cell-based; conditions: for anti-HBV activity (effect to reduce HBV DNA and cccDNA copy numbers): HBV-infected PXB cells
# Method: (§2) An infection source medium was prepared by adding the HBV-infected chimeric mouse serum (PhoenixBio), DMSO, and a PEG 8000 solution to the PXB cell culture medium (PhoenixBio) at final concentrations of 5 genome equivalents/cell, 2%, and 4%, respectively. Various synthesized peptides were diluted to different concentrations in this medium, and the resulting media were added individually to PXB cells (PhoenixBio). After the cells were left to stand in a 5% CO2 incubator at 37° C. for 20 to 28 hours, the medium was removed and the wells were washed once with PBS(−). DMSO and one of the various synthesized peptides were added to the PXB cell culture medium at a final concentration of 2% and different concentrations, respectively, and the resulting media were added individually to the PXB cells to perform medium exchange. This medium exchange was performed at 1, 5, and 9 days post infection and samples were collected at 14 days post infection.
# (§3) SMI TEST™ M EX-R&D (Medical & Biological Laboratories) was used to extract DNA from the samples. The extracted DNA was used as a template for quantitative PCR of HBV-DNA. For cccDNA detection, the extracted DNA was treated with T5 exonuclease (New England Biolabs), and the resulting DNA was used as a template for quantitative PCR. The T5 exonuclease treatment was performed at 37° C. for 30 minutes, and the DNase was later inactivated by heating at 80° C. for 15 minutes. The following primer set was used for detection.
# PXB cells, fresh human liver cells isolated from PXB mice (human hepatocyte chimeric mice), are human liver cells that maintain human liver functions at high levels and allow persistent infection with hepatitis B virus (HBV). Therefore, PXB cells were used to evaluate the anti-HBV activities of LIPG-binding peptides. LIPG-binding peptides were chemically synthesized because they were added extracellularly (Eurofins Genomics K.K.). Clones that had shown excellent results in the studies of Examples 10 and 1 (KIgk-LIPH4-23, KIgk-LIPH4-74, KIgk-LIPH4-15, KIgk-L1l 14-2. KIgk-LIPH14-14. KIgk-LIPH4-87) were selected for chemical synthesis of the peptides. […] Therefore, LIPH4-NTNA and LIPH4-NTNB, which share a common sequence with netrins and consist of 16 amino acids, were also chemically synthesized. The chemically synthesized peptides were dissolved in DMSO for use in HBV assays in PXB cells.
# Next, the anti-HBV activity of full-length Netrin-1 was examined in PXB cells. A full-length human recombinant Netrin-1 protein consisting of 604 amino acid residues (molecular weight: 67.5 kDa, SEQ ID NO: 28) was purchased from R&D Systems. United States. A shRNA with the sequence […]ctcgagc[…] TTTTTTG (single underline: terminal sequences for cloning, lowercase letters: hairpin loop sequence) (SEQ ID NO: 64) was used to knock down the Netrin-1 gene.
# [4] = biological target: T1, binding between preS1 and heparan sulfate enhanced by LIPG; test: Plate assay of binding between preS1 peptide and immobilized heparan sulfate with FLAG-LIPG; conditions: 10 or 100 nmol of peptide per well, concentration-dependent
# Method: FIG. 22-2 The effect of LIPG to promote HBV entry into cells and the effect of a LIPG-binding peptide and Netrin-1 to inhibit HBV entry into cells. E: A biotin-labeled form of heparan sulfate was added to a streptavidin-coated 96 well plate and left overnight at 4° C. to allow the heparan sulfate to bind to the plate. This plate was washed with TBS, and 10, 25, or 50 fmol of FLAG-LIPG was then added to each well to allow the reaction to proceed at room temperature for 2 hours. After the plate was washed, 10 or 100 nmol of LIPG-binding peptide LIPH4-NTNBS, LIPH4-23S, LIPH4-NTNBSA, or LIPH4-23SA was added to each well to allow the treatment to proceed at room temperature for 1 hour. Subsequently, the plate was washed, and 0.1 nmol of preS1-TMR was added to each well to allow the treatment to proceed at room temperature for another 1 hour. The plate was washed and then placed in a plate reader to measure the fluorescence of TMR.
# Furthermore, PXB cells treated with Netrin-1 were further treated with FLAG-LIPG, and the uptake of the preS1 peptide was examined, to find that the enhancement of the uptake of the preS1 peptide by FLAG-LIPG was suppressed by Netrin-1 (FIG. 22D). In addition, a biotin-labeled heparan sulfate was immobilized on a streptavidin-coated plate and the preS1 peptide was added thereto to study the binding between the preS1 region of HBV and heparan sulfate present on the cell surface.
# [5] = test system: HBV; test: Anti-HBV activities of LIPG-binding peptides delivered into PXB cells-1 (scFv fusions); assay type: cell-based; conditions: for HBV-DNA copy number: peptide concentrations (nM) indicated in FIG. 41B; for cccDNA copy number: peptide concentrations (nM) indicated in FIG. 41C
# Method: as §2, §3
# The anti-HBV activities of LIPG-binding peptides delivered into cells were evaluated using PXB cells and anti-ASGR single-chain antibody-LIPG-binding peptide fusions. Of the fusions prepared in Example 16, 10M-L23N, 10M-L23SN. 10M-L23SN-S39, and 10M-LNTSN were used. According to the timeline shown in FIG. 41A, the anti-HBV activities of the fusions were evaluated using the methods described in “(10-5) Infection experiment using PXB cells” and “(10-6) Quantification of HBV-DNA and cccDNA”.
molecule,measurement,setting,value
heparanase,"increase in HBV attachment, uptake, and replication of HBV DNA and cccDNA in LIPG-overexpressing cells",[1],reduced this increase to the same level as the control
CN(C)CCCN1c2ccccc2Sc2ccc(Cl)cc21 [chlorpromazine],LIPG-mediated increase in HBV replication (cccDNA),[2],no effect
CCN(c1nc(N)c(C(=O)N=C(N)N)nc1Cl)C(C)C [5-(N-ethyl-N-isopropyl)amiloride],LIPG-mediated increase in HBV replication (cccDNA),[2],no effect
heparin,"increase in HBV attachment, uptake, and replication of HBV DNA and cccDNA in LIPG-overexpressing cells",[1],reduced this increase to the same level as the control
LNARDNTR (LIPH4-23SA),anti-HBV activity (effect to reduce HBV DNA and cccDNA copy numbers),[3],as strongly as the original polypeptides
same,LIPG-mediated enhancement of binding between preS1 and heparan sulfate,[4],inhibited
NARHNTAG (LIPH4-NTNBsA),anti-HBV activity (effect to reduce HBV DNA and cccDNA copy numbers),[3],as strongly as the original polypeptides
same,activity in terms of copy number of HBV-DNA relative to LIPH4-NTNBs,"[3]; PXB cells, each concentration",equal to or greater than that of LIPH4-NTNBs
same,activity in terms of copy number of cccDNA relative to LIPH4-NTNBs,"[3]; PXB cells, each concentration",equal to or greater than that of LIPH4-NTNBs
same,LIPG-mediated enhancement of binding between preS1 and heparan sulfate,[4],inhibited
"10M-L23N: fusion of anti-ASGR scFv ASGR3-10M, cleavage sequence, LIPH4-23, S28, nuclear localization signal (SEQ ID NO: 127) (protein, cleavage sequence + LIPH4-23 + Flag-tag + His-tag + S28 + nuclear localization signal) RVRRLNCRDNTRPVMSAMTCDYKDDDDKHHHHHHHPFVIGAGVLGALGTGIGGITTSTQFYYKPAAKRVKLD",HBV-DNA copy number,[5],remarkably reduced
same,cccDNA copy number,[5],remarkably reduced
"10M-L23SN: fusion of ASGR3-10M scFv, cleavage sequence, LIPH4-23s, S28, nuclear localization signal (SEQ ID NO: 128) (protein, cleavage sequence + LIPH4-23S + Flag-tag + His-tag + S28 + nuclear localization signal) RVRRLNCRDNTRDYKDDDDKHHHHHHHPFVIGAGVLGALGTGIGGITTSTQFYYKPAAKRVKLD",HBV-DNA copy number,[5],remarkably reduced
same,cccDNA copy number,[5],remarkably reduced
"10M-L23SN-S39: fusion of ASGR3-10M scFv, cleavage sequence, LIPH4-23s, S39, nuclear localization signal (SEQ ID NO: 129) (protein, cleavage sequence + LIPH4-23S + Flag-tag + His-tag + S39 + nuclear localization signal) RVRRLNCRDNTRDYKDDDDKHHHHHHHPFVIGAGVLGALGTGIGGITTSTQFYYKLSQELNGDMERPAAKRVKLD",HBV-DNA and cccDNA copy numbers,[5]; added concentrations 2.5 to 25 nM,remarkably reduced
same,HBV-DNA copy number,[5],remarkably reduced
same,cccDNA copy number,[5],remarkably reduced
